From the RNAGym collection of RNA variant scans (doi:10.1073/pnas.2313332121)
Fewer inactive variants are shown than the library holds.

B1: TPR 5TU (parent)
chain: GGAUCUUCUCGAUCUAACAAAAAAGACAAAUCUGCCACAAAGCUUGAGAGCAUCUUCGGAUGCAGAGGCGGCAGCCUUCGGUGGCGCGAUAGCGCCAACGUUCUCAACUAUGACACGCAAAACGCGUGCUCCGUUGAAUGGAGUUUAUCAUG

Variants of: B1
Experiment: polymerase ribozyme fitness, log enrichment relative to wild type (log ratio); higher = more active; in vitro selection for triplet polymerase activity
How it was run: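 Fitness measures genotype enrichment against wild-type enrichment on a logarithmic scale, with inverse-variance-weighted averaging of replicates. The logarithm is base 2, and genotypes were kept only with ≥10 input reads and ≥1 read per output in Illumina sequencing. The sequenced libraries came from one triplicate in vitro selection round, including frozen incubation at −7 °C, of PCR-built, transcribed mutant libraries of each subunit of a heterodimeric triplet polymerase ribozyme.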

Variant	polymerase ribozyme fitness (log ratio)
GGAUCUUCUCGAUCUAACAAAAAAGACAAAUCUGCCACAAAGUUUGAGAUCAUCUUCGGAUGCAGAGGCGGCAGCCUUCGGUGGCGCGAUAGCGCCAACGUUCUCAACAAUGACACGCAAAACGCGUGCUCCGUUGAAUGGAGUUUAUCUUG [C43U G50U U109A A150U]	≤ -4.2
GGAUCUUCUCGAUCUAACAAUAAAGACAAAUGUGCCACAAAGCUUGAGAGCAUCUUCGGAUGCAGAGGCGGCAGCCUUCGGUGGAGCGAUAGCGCCAACGUUCUCAACUAUGACACGCAAAACGCGUGCUCCGUUGAAUGGAGUUUAUCAUG [A21U C32G C85A]	≤ -4.2
GGAUCUUCUCGAUCUAACAAAAAAGACAAAUCUGCCACAAAGCUUGAGGACAACUUCGGAUGCAGAGGCGGCAGCCGUUGGUGGCGCGAUAUCGCCAACGUUCUCAACGAUGACACGCAAAUCGCGUGCUCCGCCGAAUGGAGUUUAUAUUG [A49G G50A U53A U77G C79U G92U U109G A122U U134C U135C C149A A150U]	≤ -4.2
GGAUCUUCUCGAUCUAACAAAAAAGACAAAUCUGCCACAAAGCUUGAGAGCAUCUUCGGAUGCAGAGGCGGUAGCCUUCGGUGGCGCGAUAGGGCCAACGUUCUCAACUAUGACACGCAAAACGCGUGCCCCCUUGAAUGGAGUUUAUCAUG [C72U C93G U130C G133C]	≤ -4.2
GGAUCUUCUCGAUCUAACAAAAAAGACAAAUCUGCCACAAAGCUUGAGAGCAUUUUCGGAUGCAGAGGCGGCAGCCUUCGGUGGCGCGAUAGCGCCAACGUUCUCAACUAUGACACGCAAAACGCGUGCUCCGUUGAAUGGAGUUGAUCAUG [C54U U146G]	-0.826
GGAUCUUCUCGAUCUAACAAAAAAGACAAAUCUGCCACAAAGCUUGAGAGCAUCUUCGGAUGCAGAGGCGGCAGCCUUGGUUGGCGCGAUAGCGCCAACGUUCUCAACUAUGACACGCAAAACGCGUGCUCCAUUGAAUGGAGUUUAUCAUG [C79G G81U G133A]	≤ -4.2
GGAUCUUCUCGAUCUAACAAAAAAGACAAAUCUGCCACAAAGCUUGAGAGCAUCUUCGGAUGCAGAGGCGGCAGCCUUCGGUGGCGCGAUAGCGCCGACGUUCUCAACUAUGACACGCAAAAUGCGUGCUCCGUUGAAUGGAGUUUAUCAUG [A97G C123U]	0.215
GGAUCUUCUCGAUCUAACAAAAAAGACAAAUCUGCCACAAAGCUUGAGGGCAUCUUCGGAUGCAGAGGCAGCAGCCUUCGGUGGCGCGAUAGCGCCAACGUUCUCAACUAUGACACGCAAAACGCGUGCUCCGUUGAAUUGAGUUUAUCAUG [A49G G70A G140U]	≤ -4.2
GGAUCUUCUCGAUCUAACAAAAAAGACAAAUCUGCCACAAAGCUUGAGAACAUUUUCGGAUGCAGAGGCGGCAGCCUUCGGUGGUGCGAUAGUUCCAACGUUCUCAACUAUGACACACAAAACGCGUGCUCCGUUGAAUGGAGUUUAUCAUG [G50A C54U C85U C93U G94U G117A]	-3.95
GGAUCUUCUCGAUCUAACAAAAAAGACAAAUCUGCAACAAAGCUAGAGAGCAUCUUCGGAUGCAGAGGCGGCAGCCUUCGGUGGCGGGAUGGCGCCAACGUUCUCAACUAUGACACGCAAAACGCGUGCUCCGUUGAAUGGAGUUUAUCAUG [C36A U45A C87G A91G]	≤ -4.2
GGAUCUUCUCGAUCUAACAAAAAAGACAAAUCUGCCACAAAGCUUGAGAGCAUCUUAGGAUGCAGAGGCGGCAGUCUUCGGUGGCGCGAUACCGCCAACGUUCUCAACUAUGACACGCAAAACGCGUGCUCCGUUGAAUUGAGUUUAUCAUG [C57A C75U G92C G140U]	≤ -4.2
GGUUCUUCUCGAUCUAACAAAAAAGACAAAUCUGCUACAAAGCUUGAGAGCAUCUUCGGAUGCAGAGGCGGCAGCCUUCGGUGGCGCGAUAGCGUCAACGUUCUCAACUAUGACACGCAAAACGCGUGCUCCGUUGAAUGGAGUUUAUCAUG [A3U C36U C95U]	-3.09
GGAUCUUCUCGAUCUAACAAAAAAGACAAAUGUGCCACAAAGCUUGAGAGCAUCUUCGGAUGCAGAGGCGGCAGCCUUCGGUGGCGCGAUAGCGCCAACGUUCUCAACUAUGACACGCAAAACGCGUGCUCCGUUGAAUGGAGUUAAUCAUG [C32G U146A]	-3.88
GGAACUUCUCGAUCUAACAAAAAAGACAAAUCUGCCACAAAGCUUGAGGCCAUCUUCGGAUGCAGCGGCGGCAGCGUUCGGUGGCGCGAUAGUGCCAACGUUCUCAACUAUGACACGCAAAACGCGUGCUCCGUUGAAUGGAGUUUAUCAUG [U4A A49G G50C A66C C76G C93U]	≤ -4.2
GGAUCUUCUCGAUCUAACAAAAAAGACAAAUCUGCCACAAAGCUUGAGAGUAUCUUCGGAUGCAGAGGCGGCAGCCUUCGGUGGCGCGAUAGCGCUAACGUUCUCAACUAUGACACGCAAAACACGUGCUCCGUUGAAUGGAGUUUAUCAUG [C51U C96U G124A]	-0.0401
GGAUCUUCUCGAUCUAACAAAAAAGACAAAUCUGCCACAAAGCUUGACAGCAUCUUCGGAUGCAGAGGCGGCAGCCUUCGGUGGCGCGAUAGCGCCAACGUUCUCAACUAUGACACGCAAAACGCUUGCUCCGUUGAAUGGAGUUUAUCAUG [G48C G126U]	-0.372
GGAUAUUCUCGAUCUAACAAAAAAGACAAAUCUGCCACAAAGCUUGAGAGCAUUAUCGGAUGCAGAGGCGGCAGCCUUCGGUGGCGCGAUAGCGGAAACGUUCUCAACUAUGACACGCAAAACGCGUGCUCCGUUGAAUGGAGUUUAUCAUG [C5A C54U U55A C95G C96A]	-4.05
GGAUCUUCUCGAUCUAACAAAAAAGACAAAUCUGCCACAAAGCUUGAGAGCAUCUUCGGAAGCAGAGGCGGCAGGCUUCGGUGGCGCGAUAGCGCCAACGUUCUCAACUAUGACACGCAAAACGCGUGCUCCGUUGAAUGGAGUUUAUCAUG [U61A C75G]	-3.89
GGAUCGUCUCGAUCUAACAAAAAAGACAAAUCUGCCACAAAGCUUGAGAGCAUCUUCGGAUGCAGAGGCGGCAGCCUUCGGUGGCGCGAUAGCGCCAAGGUUCUCAACUAUGACACGCAAAACGCGUGCUCCGUUGAAUGCAGUUUAUCAUG [U6G C99G G141C]	-2.05
